IC50, Ki and Km data for four molecules are collected here from doi:10.1101/2022.10.12.511968v1 (biorxiv, 2022).

Data set [1] addresses T1, METTL7A (TMT1A1; N-GST-METTL7A) (Homo sapiens, UniProt Q9H8H3).
T1 sequence (Q9H8H3 1-244): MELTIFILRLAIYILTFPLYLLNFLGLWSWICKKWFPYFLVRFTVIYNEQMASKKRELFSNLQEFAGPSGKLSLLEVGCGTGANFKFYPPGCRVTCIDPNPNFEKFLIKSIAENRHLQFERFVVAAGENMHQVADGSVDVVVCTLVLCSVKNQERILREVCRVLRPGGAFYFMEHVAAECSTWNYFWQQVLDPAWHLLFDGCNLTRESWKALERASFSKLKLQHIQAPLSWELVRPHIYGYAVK
Description: TSL S-methylation, TMSL formation by LC-MS/MS, single time-point. It is filed as biochemical.

For data set [2], the target named is T1, METTL7A (TMT1A1; N-GST-METTL7A). The description is as above. It is filed as biochemical. The source holds these as a separate data set.
Substrate in data set [3]: C[C@]12CCC(=O)C=C1C[C@@H](S)[C@@H]1[C@@H]2CC[C@@]2(C)[C@H]1CC[C@@]21CCC(=O)O1
Briefly: purified protein. Conditions: 100 µM SAM, DMPG, pH 7.0, 37 °C.

Substrate in data set [4]: C[S+](CC[C@H](N)C(=O)O)C[C@H]1O[C@@H](n2cnc3c(N)ncnc32)[C@H](O)[C@@H]1O
Description: purified protein. Conditions: 250 µM TSL (saturating), DMPG, pH 7.0, 37 °C, varied: cofactor.

The molecule `CC(N)c1cccc(Cl)c1Cl` (stereo not drawn) [DCMB, 2,3-dichloro-α-methylbenzylamine] returned a half-maximal inhibitory concentration (IC50) in data set [1] of 1170 nM. In turn, `Nc1ncnc2c1ncn2[C@@H]1O[C@H](CSCC[C@H](N)C(=O)O)[C@@H](O)[C@H]1O` [SAH] showed a Ki in data set [2] of 53.9 µM. This counts as double-digit micromolar.

B1: METTL7A (TMT1A1; N-GST-METTL7A) (Homo sapiens) (protein)
chain: MELTIFILRLAIYILTFPLYLLNFLGLWSWICKKWFPYFLVRFTVIYNEQMASKKRELFSNLQEFAGPSGKLSLLEVGCGTGANFKFYPPGCRVTCIDPNPNFEKFLIKSIAENRHLQFERFVVAAGENMHQVADGSVDVVVCTLVLCSVKNQERILREVCRVLRPGGAFYFMEHVAAECSTWNYFWQQVLDPAWHLLFDGCNLTRESWKALERASFSKLKLQHIQAPLSWELVRPHIYGYAVK
Take B1: the Km stood at 39.4 µM in data set [3] and 53.73 µM in data set [4].

B2: METTL7B (TMT1B1; N-GST-METTL7B) (Homo sapiens) (protein)
chain: MDILVPLLQLLVLLLTLPLHLMALLGCWQPLCKSYFPYLMAVLTPKSNRKMESKKRELFSQIKGLTGASGKVALLELGCGTGANFQFYPPGCRVTCLDPNPHFEKFLTKSMAENRHLQYERFVVAPGEDMRQLADGSMDVVVCTLVLCSVQSPRKVLQEVRRVLRPGGVLFFWEHVAEPYGSWAFMWQQVFEPTWKHIGDGCCLTRETWKDLENAQFSEIQMERQPPPLKWLPVGPHIMGKAVK
For B2, the Km in data set [3] was determined as 32.5 µM.

In general, IC50 refers to the concentration needed to halve the response being measured. As a reminder, the Ki is the dissociation constant of the complex between target and ligand, obtained from inhibition or displacement. A low value points to a stronger hold on the target. As a reminder, the Km is the concentration of substrate that gives half-maximal velocity.
